Assay results published in US20220356229A1.
Substitutions are numbered along the chain they refer to.

B1: antibody 1037 (antibody, V domains shown)
VH: QITLKESGPTLVKPTQTLTLTCTFSGFSLSTSGVGVGWIRQPPGKALEWLALIYWDDDKRYSPSLKSRLTITKDTSKNQVVLTMTNMDPVDTATYYCAHHTITRINDYWGQGTLVTVSS
VL: QSALTQPASVSGSPGQSITISCTATSSDVGAYNYVSWYQQHPGKAPKLMIYDVSKRPSGVSNRFSGSKSGNTASLTISGLQAEDEADYYCSSYTSSSTVFGGGTKLTVLG
B2: antibody 1404 (antibody, V domains shown)
VH: B1 VH with T31I, I39L, T72S, T83K, M87I, T101S, T103S, R104T, N106F, Y108H
VL: B1 VL with A31D, Y51F, D52E, K55D, V60I, S95T, T98A
B3: antibody 851 (antibody, V domains shown)
VH: QITLKESGPTLVKPTQTLTLTCTFSGFSLSTNGVGMGWIRQPPGKALEWLALIYWDDDQFYSPSLKSRLTITRDTSKNQVVLTMTNMDPVDTATYYCAQAFYESFGFYSWGQGTLVTVSS
VL: NFMLTQPHSVSESPGKTVIISCTRSIGSIASNYVQWYQQRPGSAPTIVVFEDNERPSGVPDRFSGSIDRSSNSASLTISGLKTEDEADYYCQSYDGSSELVFGGGTKLTVLG
B4: antibody 1444 (antibody, V domains shown)
VH: QVQLVQSGAEVKKPGASVKVSCKASGYTFTAYYMHWVRQAPGQGLEWMGWINPNSDDTNYAQKFQGRVTMTRDTSISTAYMELSRLRSDDTAVYYCAREEGVFTIGDRYFDLWGRGTLVSVSS
VL: QTVVTQEPSFSVSPGGTVTLTCGLSSGSVSTSYYPSWYQQTPGQAPRTLIYNTNTRSSGVPDRFSGSILGNKAALTITGAQADDESDYYCVLYMGSGIWVFGGGTKLTVLG
B5: antibody 923 (antibody, V domains shown)
VH: EVQLVESGGGVVRPGGSLRLSCAASGFIFDDYDMTWVRQAPGKGLEWVSGISWNGGNTGYADSVKGRFTISRDNAKNSLYLQMNSLRAEDTALYHCAVIMSPIPRYSGYDWAGGAFDIWGQGTMVTVSS
VL: SSELTQDPAVSVALGQTVRITCQGDSLRSYYASWYQQKPGQVPILVIYDKNNRPSGIPDRFSGSSSGNTASLTITGAQAEDEADYYCNSRDSSGNAVVFGGGTKLTVLG
B6: antibody 1538 (antibody, V domains shown)
VH: EVQLLESGGGLVQPGGSLRLSCAASGFTFSSYAMSWVRQAPGKGLEWVSGISDSGGSTYYADYVKGRFTISRDNSKDTLYLQMNSLRAEDTAVYYCAKDRGNEYALTHYYYYAMDVWGQGTTVTVSS
VL: DIQMTQSPSSLSASVGDRVTITCRASQSISSYLNWYQQKPGKAPKLLIYAAYSLQSGVPSRFSGGGSGTDFTLTISSLQPEDFATYFCQQSYSTPITFGQGTRLEIKR
B7: antibody 896 (antibody, V domains shown)
VH: EVQLVESGGGVVQPGGSLRLSCAASGFTFDDYAMHWVRQVPGKGLEWVSLISGDGGSTYYADSVKGRFTISRDNSKNSLYVQMNSLRTEDTALYYCVKDRGGSGWDLNHYYYGMDVWGQGTTVTVSS
VL: DIQLTQSPSFLSASVGDRVTVTCRASQGISSYLAWYQQKPGKAPKLLIYAAYTLQSGVPSRFSGSGSETEFTLTISSLQPEDFATYYCQQVKSYPLTFGGGTKVEIKR

Key:
[1] = target: SARS-CoV-2 full length Spike protein, lineage B.1.351 (SARS-CoV-2)
[2] = target: SARS-CoV-2 full length Spike protein, lineage B.1.1.7 (SARS-CoV-2)

Binder | bead assay binding signal [1] | bead assay binding signal [2]
B1 | 985 | 749
B2 | 941 | 719
B3 | 681 | 545
B4 | 802 | 626
B5 | 435 | 604
B6 | 928 | 706
B7 | 946 | 692
